B1: TPR t1 (parent)
chain: GACCAAUCUGCCCUCAGAGCUCGAGAACAUCUUCGGAUGCAGAGGAGGCAGGCUUCGGUGGCGCGAUAGCGCCAACGUCCUCAACCUCCAAUGCAUCCCACCACAUGAUGAUGCCUGAAGAGCCUUGGUUUUUUG

Variants of: B1
Experiment: polymerase ribozyme fitness, log enrichment relative to wild type (log ratio); higher = more active; in vitro selection for triplet polymerase activity
In short: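 Both subunits of a heterodimeric triplet polymerase ribozyme were given their own mutant library, built by PCR and transcribed. Each library was annealed with a biotinylated primer, the partner subunit and triplets, incubated frozen at −7 °C, and its extended constructs gel-excised, captured on streptavidin beads and amplified by RT-PCR, all in one round done in triplicate. Fitness is the logarithm of genotype enrichment relative to wild-type enrichment, with replicates averaged by inverse-variance weighting. That logarithm is base 2, and Illumina-sequenced genotypes needed ≥10 input reads and ≥1 read per output.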
For GUCCAAUCUGCCCUCAGAGCUCGAGAACAUCUUCGGUUGCAGAGGAGACAGGUUUCGGUAGCGCGAUAGCGCCAACGUCCUCAAACUCCAAUGCAUCCCACCACAUGAUGAUGCCUGAAGAGCCUUGGUUUUUUG, the “polymerase ribozyme fitness (log ratio)” value was -3.47. For GUCCGAUCUGCUCUCAGAGCUCGAGAACAUCUUCGGAUGCAGAGGAGGCAGGCUUCGGUGACGCGAUAGCGCCAACGUCCUCAACCUCCAAUGCAUCCCACCACAUGAUGAGGCCUGAAGAGCCUUGGUUUUUUG, the “polymerase ribozyme fitness (log ratio)” value was -2.18. With GUCCAAUUUGCCCUCAGAGCUCGAGAACAUCUUCGGAUGCAGAGAAGGCAGGCUUCGGUGGCGCGAUAGCGCUAACGUCCUCAACCUCCAAUGCGUCCCACCACAUGAUGAUGCCUGAAAAGCCUUGGUUUUUUG the “polymerase ribozyme fitness (log ratio)” value was -0.341. For GGCCAAUCUGCCCUCAGAGCUCGAGAACAUCUUCGGAUGCAGAGGAGGCAGGCUUCGGUGGCGCGAUAGCGCCAACUUCCUCAACGUCCAAUGCAUCCCACCACAUGAUGAUGCCUGAAGAGCCUUGGUUUUUUU, the “polymerase ribozyme fitness (log ratio)” value was -2.95. With GUCCAAUCUGCCCUCGGAGCUCGAGAUCAUCUUCGGAUGCAGAGGGGGCAGGCUUCGGUUGCGCGAUAGCGCCAACGUCCUCAACCUCCAAUGCAUCCCACCACAAGAUAAUGCCUGAAGAGCCUUGGUUUUUUG the “polymerase ribozyme fitness (log ratio)” value was -5.21. With GUCCAAUUUGCCCUCAGAGCUCGAGAACAUCUUCGUAUGCAGAGGAGGCAGGCUUCGGUGGCGCGAUAGCGCCAACGUCUUCAACCUCCAAUGCAUCCCACCACAUGAUGAUGCCUGAAGAGCCUUCGUCUUUUG the “polymerase ribozyme fitness (log ratio)” value was -3.03. In the case of GUCCAAUCUGGCCUCAGAGCUCGAGAACAUCUUCGGAUGCAGAGGAGGCAGGCUUCGGUGGCGCGAUAGCGCCAACGUCCUCAACCUCCAAUGCAUCCCACCACAUGAUGAUGCCUGAAAAGCCUUGGUUUAUUG, the “polymerase ribozyme fitness (log ratio)” value is reported as 0.742. For GUCAAAUCUGCCCUCAGAGCUCGAGAACAUCUUCGGAUGCAGAGGAGGCAGGCUUGGGUGGCGCGAUAGCGCCAACGCGCUCAACCUCCAAUGCAUCCCAUCACAUGAUGAUGCCUGAAGAGCCUUGGUUUUUUG, the “polymerase ribozyme fitness (log ratio)” value was -3.31. For GUCCAAUCUGCCCUCAGAGCUCGAGAACAUCUUCGGAUGCAGUGGAGGCAGGCUUCGGUGGCGCGAUAGCGCCAACGUCCUCAACCUCCAAUGCAUCCCACCACAUGAUGAUGCCUGAAGAGCCUUGGUUUUUUG, the “polymerase ribozyme fitness (log ratio)” value was -3.48. For GUCCAAUCUGCCCUCAGAGCUCGAGAACAUCUUCGGUUGCAGAGGAGGCAGGCUUCGGUGGCGCGAUAGCGACAACGACCUCAACCUCCAAUGCAUCCCACCACAUGAUGAUGCCUGAAGAGCGUUGGUUUUUUG, the “polymerase ribozyme fitness (log ratio)” value was -0.247. In the case of GUCCAAUAUGCCCUCAGAGCUCGAGAACAUCUUCGGAUGCUGAGGAGGCAGGCUUCGGUGGCGCGAUAGCGCCAACGUCCUCAACCUCCAAUGCAUCCCAUCACAUGAUGAUGCCUGAAGAGCCUUGGUGUUUUG, the “polymerase ribozyme fitness (log ratio)” value is reported as -1.84. In the case of GGCCAAUCCGCCCUCAGAGCUCGAGAACAUCUUCGGAUGCAGAGGAGGCAGGCUUCGGUGGCGCGAUACCGCCAACGUCCUCAACCUCCAAUGCAUCCCACCACAUGAUGAUGCCUGAAGAGCCUUGGUUUUUUG, the “polymerase ribozyme fitness (log ratio)” value is reported as -0.585. In the case of GUGUAAUCUGCCCUCAGAGCUCGAGAACAUCUUCGGAUGCAGAGGAGGCAGGCUUCGGUGGCGCGAUAGCGUCAACAUCCUCAACCUCCAAGGCAUCCCACCACAUGAUGAUGCCUGUAGAGGCUUGAUUUUUUG, the “polymerase ribozyme fitness (log ratio)” value is reported as -3.1. For GGCCAAUCUGCCCUCAGAGCUCGAGAACAUCUUCGGAUGCAGAGGAGGCAGGCUUCGGUGGCGCGAUAGCGCCAACAUCCUCAACCUCCAAUGCAUCCCACAACAUGAUGAUGCCUGAAGAGGCUUGCUUUUUUG, the “polymerase ribozyme fitness (log ratio)” value was -3.09. In the case of GUCCAAUCUGCCCUCAGAGCUCGAGAACAUCUUCGGCUGCAGAAGAGGCAGGAUUCGGUGGCCCGAUAGCGCCAACGUCCUCAACCUCCAAUGCAUCCCACCACAUGAUGAUGCCUGAAGAGCAUUGGUUUUUUG, the “polymerase ribozyme fitness (log ratio)” value is reported as -3.55. In the case of GUCCAAUGUGCCCUCAGAGCUCGAGAACAUCUUCGGAUGCAGAGGAGGCAGGCUUCGGUGGCGCGAUAGCGCCAACGUCCUCAACCUCCAAUGCAUCCCAGCACAUGAUGAUGCCUGAAGAGCCUUGGUUUUUUG, the “polymerase ribozyme fitness (log ratio)” value is reported as -2.67. In the case of GUCCUAUCUGCCCUCAGAGCUCGAGAGCAUCUUCGGAUGCAGAGGAGGCAGGGUUCGGUGGCGCGAUAGCGCCAACGUCCUCAACCGCCAAUGCAUCCCACCACAUGAUGAUGCCUGAAGAGCCUUGGUUUUUUG, the “polymerase ribozyme fitness (log ratio)” value is reported as -4.56. With GUCCAAUCUGCCCUCAGAGCUCGAGAACAUCUUCGGAUGCCGAGGAGGCAGGCUUCGGUGGCGCGAUAGCGCCAACGUCCUCAACCUCCAAUGCAUCCCACCACAUGAUGAUGUCUGAAGAGCCUUGGUUUUGUG the “polymerase ribozyme fitness (log ratio)” value was -5.64. In the case of GUCCAAUCUGCCCUCUGAGCUCGAGAACAUCAUCGGAUGCCGAGGAGGCAGGCUUCGGUGGCGCGAUAUCGCCAACGUCCUCAACCUCAAAUGCAUCCCACCACAUGAUGAUGCCUGAAGAGCCUUGGUUUUUUG, the “polymerase ribozyme fitness (log ratio)” value is reported as -7.42. In the case of GGCCAAUCUGCCCUCAGAGCUCGAGAACAUCUUCGGAGGCAUAGGAGGCAGGCUUCGGUGUCGCGAUAGCGCUAACGUCCUCAACCUCCAAUGCAUCCCACCACAUGAUGAUGCUUGAAGAGCCUUGGUUUUUUG, the “polymerase ribozyme fitness (log ratio)” value is reported as -3.74. For GUCCCAUCUGCCCUCAGAGCUCGAGAACAUCUUCGGAUGCAGAGGAGGCAGGCUUCGGUGGCCCGAUAGCGCCAACGUCCUCAACCUCCAAUGCAUCCCACCACAUGAUGAUGCCUGAAGAGCCUUGGUUUUUUG, the “polymerase ribozyme fitness (log ratio)” value was -3.31.
